Test results taken from article PMC8446286.

T1: GST-PIF4 (Arabidopsis thaliana, UniProt Q8W2F3 1-430)
T1 sequence: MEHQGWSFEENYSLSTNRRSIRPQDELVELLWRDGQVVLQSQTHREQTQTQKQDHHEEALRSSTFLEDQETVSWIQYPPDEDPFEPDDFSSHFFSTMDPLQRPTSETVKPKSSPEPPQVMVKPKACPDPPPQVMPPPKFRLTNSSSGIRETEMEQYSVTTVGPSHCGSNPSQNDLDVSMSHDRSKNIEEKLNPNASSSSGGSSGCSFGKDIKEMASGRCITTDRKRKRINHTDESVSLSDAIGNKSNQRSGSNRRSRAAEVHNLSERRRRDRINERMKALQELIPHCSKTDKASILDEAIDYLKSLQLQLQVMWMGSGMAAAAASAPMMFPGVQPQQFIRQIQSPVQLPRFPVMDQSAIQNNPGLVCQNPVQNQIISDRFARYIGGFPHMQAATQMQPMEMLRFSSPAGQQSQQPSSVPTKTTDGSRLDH

B1: NAC019pro-G1 (dsDNA)
DNA 1: ATCACGACGATCTAACTGACACACGTGTCAGAATTCAAAAGTGTTTATAGATAAACACAA
DNA 2: TTGTGTTTATCTATAAACACTTTTGAATTCTGACACGTGTGTCAGTTAGATCGTCGTGAT
B2: IAA29pro-G (dsDNA)
DNA 1: GAGTAGTCACGCACGCACGACTCCGTTCACGTGACATTCACGTTGATATTTCCCCCTCTA
DNA 2: TAGAGGGGGAAATATCAACGTGAATGTCACGTGAACGGAGTCGTGCGTGCGTGACTACTC
B3: NAC019pro-G2 (dsDNA)
DNA 1: CATTTCAGAAAACCCGTCAACAAAAAACACGTGAAATAAAATATCTCTTCCTTTACCAGT
DNA 2: ACTGGTAAAGGAAGAGATATTTTATTTCACGTGTTTTTTGTTGACGGGTTTTCTGAAATG
B4: NAC019pro-G34 (dsDNA)
DNA 1: TTGCGCCTAACTTCTACGATAGACACGTGGACACGTGTCGTCATGATGTAGTTTTGTCCG
DNA 2: CGGACAAAACTACATCATGACGACACGTGTCCACGTGTCTATCGTAGAAGTTAGGCGCAA
B5: IAA29pro-p (dsDNA)
DNA 1: GATGTTGGATGTCTAAATTCGTTGAATCATGTGTCTCTTGACGAAATATGCATCTTCTTA
DNA 2: TAAGAAGATGCATATTTCGTCAAGAGACACATGATTCAACGAATTTAGACATCCAACATC

Biological target: T1, GST-PIF4
Test: EMSA

Does B1 bind?
Result: binds

Does B2 bind?
Result: binds

Does B3 bind?
Result: no binding

Does B4 bind?
Result: binds

Does B5 bind?
Result: no binding
